Source: the supplement of paper PMC12042874
± gives the uncertainty stated by the source.

Assay: amyloid nucleation score (Sup35N fusion, yeast selection) (log enrichment); library NNK1; higher = more nucleation; inactive = no reads after selection
Method in brief: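 The nucleation score is the log enrichment of output over input reads, calculated with DiMSum and centred on the mode score of non-aggregating sequences. Sequences with under 100 input reads were excluded. Reads came from Illumina sequencing of plasmid inserts from psi-negative yeast expressing Sup35N fused to peptides of 20 random codons, induced 24 hours with 100 μM copper sulfate and grown 7 days at 30°C without adenine and uracil.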

Substance	amyloid nucleation score
LHRYNYLVYRSTKCMFGVLI	0.222 ± 0.52
LHSIDVDIDVEFLSTHRDGP	inactive
LHTKVV	0.431 ± 0.77
LHTRGLEMFRIGPSCCKWPL	1.49 ± 0.68
LIALLLAWDMYI	0.18 ± 0.32
LIEDHVLYHVRAKKYRSHYI	-0.381 ± 0.79
LIFSNNWFYYTFYDS	5.85 ± 0.087
LIFVKDVTLVMHGEERYRRS	5.508 ± 0.049
LIHSRKVLSSMTYIEGPLTS	0.166 ± 0.34
LIISFVIVSRMLSVRFSTIV	0.262 ± 0.61
LIKLLRVKRMYASYLFSNKV	-1.33 ± 1.6
LILCCPYNFNLVLMCCPKVG	7.268 ± 0.049
LILEHNFWVRISYELVPCFW	1.15 ± 0.3
LILFVGIYTLHYYGFNRRYS	0.272 ± 0.69
LILILNGMRNWSLAEDGACS	0.326 ± 0.85
LISFEHEFKRCHCALVTWT	-0.048 ± 0.3
LISLRVHYAASLFFFPVDDF	0.998 ± 0.93
LISNRPMW	0.29 ± 0.48
LIVVVTLSGEHRFSVMVYRN	-0.001 ± 0.64
LIYPGIVDFVFSDARQGCSR	1.08 ± 0.69
LKCLFLIAIFYIINCCSNLS	inactive
LKCRLLVQTQLSESRGMWTS	0.316 ± 0.7
LKIEPRC	-0.512 ± 0.4
LKRMFFSNVLFFGSMIAGNR	0.162 ± 0.59
LKTWVDFRDYLLAPKAVCIY	0.161 ± 0.57

Substance	amyloid nucleation score
LKVERMTRKPHGVELLSFRR	-0.163 ± 0.97
LKVLYLRSDRVSWVSKPLVI	-0.405 ± 0.87
LKVPCL	-0.067 ± 0.59
LKYCYGTT	0.171 ± 0.29
LLAVAGPLLWLYRYMISFIS	0.071 ± 0.97
LLCYCVAELLDNTRRAT	0.328 ± 0.57
LLDARWRTYSFRVAMLWGRR	inactive
LLDKTTVKVILCLFNDTINL	7.855 ± 0.043
LLEALQNLGRLLITTPLVV	0.475 ± 0.84
LLFCQNDSGVVRLMLTVFLR	-0.791 ± 1.2
LLFLYSLNLSRHLY	0.71 ± 1.1
LLGMRFSVVPSPATFGWTHF	1.81 ± 0.18
LLHCKVICRRCCVIWSSCSI	2.09 ± 0.46
LLICADVITFCFECTMRTGF	4.13 ± 0.064
LLIDSPCNWCTRGRSCKFSY	inactive
LLIRLLGQ	inactive
LLISDAVVYLFWTPENHSTW	1.2 ± 0.56
LLIWRN	0.995 ± 0.62
LLLFFNYNLSVIWWVYGRKS	1.23 ± 0.47
LLLLAIIDRYSIWK	-0.183 ± 0.41
LLLLVRFYGSGSPHSGAEPI	-1.14 ± 1.5
LLLSSLTDFHVVDRLIKQAW	-0.003 ± 0.41
LLNMCNNESTLERNPF	1.93 ± 0.37
LLNRSALCWMCCTKDSWLLT	7.073 ± 0.061
LLPLLSMGRTPLRCKPMASS	0.058 ± 0.3

Substance	amyloid nucleation score
LLQGCNEVPVRKSKVVSSVR	0.441 ± 0.24
LLRVVKHCLCWNRYNDSDAG	1.05 ± 0.34
LLRWLRTVVSGGCVSVNLVE	0.034 ± 0.28
LLSATFLLMSTCY	0.34 ± 0.29
LLSGNGQRLSSEQTCRELVG	-0.727 ± 0.28
LLSHQVTPSGRYSFSLCKSW	0.873 ± 0.84
LLSPFCVVLGSSTTGTMVNM	0.287 ± 0.62
LLWNDCGFLRWASGH	2.59 ± 0.11
LMDNCVRR	-1.06 ± 1.9
LMEFHLYQMYSLRLVARRWW	1.32 ± 0.38
LMFAISKIKIF	inactive
LMKCCNVMGCGDDA	2.45 ± 0.15
LMLERFRLLYNEDFGGKVMF	0.448 ± 0.47
LMLPFVYS	0.392 ± 0.37
LMLVHRVF	-0.034 ± 0.51
LMNICRNVARG	-0.876 ± 0.71
LMPPSG	0.072 ± 0.69
LMSYSECQLSLNAYRGGRVE	0.373 ± 0.55
LMWCGSANMY	0.632 ± 1.2
LNALFYLKWALRRWSRKYCE	1.39 ± 0.79
LNCCYKKNVGIQDMRTMDIQ	0.247 ± 1.1
LNFDNFLLMWTMLVNRIISD	0.574 ± 0.97
LNLLYASWYYSFGVR	-0.194 ± 0.24
LNMLMMVGVWGYFVITIHTI	0.68 ± 0.71
LNNTVEDPA	0.892 ± 0.92

Substance	amyloid nucleation score
LNRVFEDHWVLTLAVLHTSR	inactive
LNSSIYDLSHTVAGCHPALT	-0.293 ± 1.3
LNVGV	-0.215 ± 1.7
LNVGVLGGRLLSGALVNSTM	0.396 ± 0.65
LNWNCITCTLNFVKYVTDCR	7.866 ± 0.046
LNYIQNC	inactive
LNYSWDWLVVCIVANVRTYD	2.22 ± 0.12
LPCKIKKWIHWEFRSEFN	-2.06 ± 2.7
LPGVFAPCSDYLMVMDVGHS	-0.409 ± 0.35
LPIRASGNHL	0.495 ± 0.79
LPSDSFAVI	0.483 ± 0.81
LPTSTVSCQNWDTLLTLCSG	-0.094 ± 0.77
LPWRRGWSFSTLVSLTGLSA	0.353 ± 0.31
LQAAGLRFGRICLFLDK	-0.259 ± 1.2
LQDFGKHPTLRCTVYRLHRP	-1.02 ± 0.83
LQILLLVSCLSQYAANKRRA	-0.291 ± 0.57
LQLCLPVFNHVMHVNWMRFY	-0.837 ± 2.4
LQRCAKLYSMSILTYAIIRF	-0.525 ± 0.28
LQRLY	-0.251 ± 0.35
LQSAVRWWHFDSRLGEAKLM	0.902 ± 0.69
LQSFVLLGDRIYRRFCVLMN	0.048 ± 1.2
LQTLGNWLHFKYAYWLLSNL	-0.55 ± 0.72
LQTSRHFSLRWWCMYSWGNS	1.41 ± 0.51
LQYAKRDDIDSDVLLYKMYG	0.203 ± 0.97
LRARMCYRAPLRFR	-0.257 ± 1.7

Substance	amyloid nucleation score
LRARVGGVEFVYSVQRRLKP	-0.167 ± 0.62
LRASAWHQFHFAV	0.376 ± 0.78
LRFLWRRRS	0.949 ± 0.28
LRFMCRYFLRQRNYEPWFYG	0.1 ± 0.55
LRGRSPNYEALKMLYFFLLV	0.314 ± 1.4
LRHFSRSF	0.16 ± 0.29
LRKNSPTFRGSPCQQWYVER	1.27 ± 0.56
LRKVGQGI	0.066 ± 0.67
LRMFFDSTTILKLYERSWNI	0.777 ± 1.2
LRNVVSYREDFECSWGCHRG	0.724 ± 0.32
LRRGKLDLDHPLVNKWRKKG	-0.005 ± 0.67
LRSEEVFTHMRAGVAKSFWD	0.461 ± 0.72
LRVKSSGDLSLSGSFDCDV	0.199 ± 0.64
LRVMKKRLVDATHNFVPVAN	4.33 ± 0.075
LRVPRCMIKRLHYGICPSSG	0.094 ± 0.91
LRYAG	-0.87 ± 0.53
LRYIMPDND	-1.09 ± 1.5
LSCWLYNPGYCVSVEFC	6.906 ± 0.056
LSFEIFMNVTRPSICHKVSL	-2.04 ± 2.4
LSFLLEASNHDWDGSLG	inactive
LSFLSSVSDLIKLSSIFYGY	-0.264 ± 0.37
LSGERNVMCSVWACLGRDYR	8.102 ± 0.047
LSHRGVLVAMDRTMYPM	-0.621 ± 0.42
LSISRCSGRAV	inactive
LSKCTKRKFTMCWDSLVRK	0.779 ± 0.26

Substance	amyloid nucleation score
LSKVVFGLWFCT	0.299 ± 0.34
LSLKASDMRIGRYRSDKATF	1.18 ± 0.79
LSLSLMLGDIPSTIMRGCFR	inactive
LSNYYHDGILVIMRSATNDH	1.61 ± 0.41
LSPSSMN	inactive
LSRFRLFSYMYVLHKCNMGM	-0.777 ± 1.2
LSRTKGYC	0.558 ± 0.33
LSSDADFKNNSLFRESDKYV	-0.297 ± 0.22
LSSTLCSIVF	0.051 ± 0.57
LSTKKTQTMRRVW	0.404 ± 0.44
LSTPYHQWLLAGRSRWASRK	0.609 ± 0.49
LTEIVYTVGAEGTLWRSGAA	0.298 ± 0.45
LTGCLNEYGVSNFMEVRVFR	-1.88 ± 2.7
LTGRVFRSYRYGCTGQIAVD	-0.624 ± 0.56
LTISTYSCWGEF	0.456 ± 0.66
LTMLYMLLCDNSLMRDILPD	0.951 ± 0.88
LTRDEGPIEDKNVEARFRVS	0.098 ± 0.31
LTRDLMCEPVLCGLLPVSGR	0.314 ± 1.4
LTRGQSLPMCATSVFEEYSH	0.325 ± 0.43
LTRVWSVTCVCSFGRPYK	2.13 ± 0.27
LTSCASLWEDRVVLSCLPGG	inactive
LTSTDISMGRCAVHQSYLFK	2.69 ± 0.29
LTVGYSRYIPVRYGF	-1.08 ± 0.43
LTVVTAAFRATMVEHIL	-0.368 ± 0.4
LVALPMWIF	0.402 ± 0.41

Substance	amyloid nucleation score
LVCSLTDNYDEE	0.169 ± 0.97
LVFLTYSSASARIPLRI	0.267 ± 0.29
LVGFSVSYKVSENFCSTL	inactive
LVGMCNHTYDS	0.998 ± 0.66
LVGTTRLMRFWSRVMT	-0.171 ± 0.41
LVISSRREKR	0.009 ± 0.57
LVLSVFWRNVVWAINLAVVS	-0.521 ± 0.31
LVMTNIVLRSVKERVHRLLR	-0.46 ± 0.81
LVPNLLVHGVYY	-2.39 ± 2.4
LVPVWARLR	-0.686 ± 0.65
LVRLVVLLKEPGEDRFIIEH	-0.427 ± 0.79
LVRRFLSWRIQSLDPIKK	-0.425 ± 0.76
LVRWSLLRFFL	1.89 ± 0.59
LVSMVWLPM	0.167 ± 0.84
LVTDPWISTLSSFHLWGGFM	0.887 ± 0.7
LVTMLLNKYIVNRSHDGVRI	0.966 ± 0.49
LVTRGFEVRGDHQVIKYFLA	-0.6 ± 0.49
LVVFLNC	-0.607 ± 0.39
LVVQLYS	-0.336 ± 0.62
LVVYRSKQRSYCCM	-0.359 ± 1.9
LWCCGGAFHSTDLGSAGLIM	0.372 ± 1.4
